The Km is the substrate concentration at which the rate is half of its maximum. Usually kcat stands for the number of substrate molecules converted per active site and unit of time at saturation.

In article PMC10998830 one finds Km and kcat data, which are given here for one protein.

“And” between values parts separate entries of the source, which are not always exact repeats. Equal values may be shown once.

Substrate in the data set “purified protein”: Nc1ncnc2c1ncn2[C@@H]1O[C@H](COP(=O)(O)OP(=O)(O)O)[C@@H](O)[C@H]1O
The experiment in a line: purified protein. It is filed as biochemical, Acinetobacter baumannii. As to conditions: 25 °C, pH 8.5, 1.6 mM PRPP, 15 mM MgCl2, 100 mM KCl, unlabelled enzyme.

Substrate in data set [1]: O=P(O)(O)OC[C@H]1O[C@H](OP(=O)(O)OP(=O)(O)O)[C@H](O)[C@@H]1O
Briefly: purified protein, by the assay type. As to conditions: 25.0 °C. The protocol:
To assess the effect of increased AbHisGS mass in catalysis, we purified AbHisGS from heterologous expression in M9 medium supplemented with different isotopes to produce AbHisGS carrying natural isotope abundance (unlabelled AbHisGS), [^15N]AbHisGS, [^13C,^15N]AbHisGS, and [^2H,^13C,^15N]AbHisGS (the ^2H is incorporated in non-exchangeable positions) (Supplementary Fig. 1). […] AbATPPRT substrate saturation curves at 25 °C using unlabelled AbHisGS produced from heterologous expression in LB medium by our published protocol[30] and unlabelled AbHisGS generated here from expression in M9 medium and in M9 with high cell density induction[47] […] S5 Supplementary Figure 4 Substrate saturation curves for unlabelled AbATPPRT with AbHisGS purified from cultures grown in M9 and M9 with high cell density compared with previously published data (reproduced here) for unlabelled AbATPPRT with AbHisGS purified from cultures grown in LB. For the M9 and M9 high cell density curves, all data points are shown for two independent measurements, except for the previously published LB curves, where data are the mean of two independent measurements. […] Kinetics and thermal denaturation data were analysed by the nonlinear regression function of SigmaPlot 14.0 (SPSS Inc.). […] The concentration of ATPPRT at any concentration of AbHisGS and AbHisZ was calculated according to Eq. (4). […]

Substrate in data set [2]: Nc1ncnc2c1ncn2[C@@H]1O[C@H](COP(=O)(O)OP(=O)(O)O)[C@@H](O)[C@H]1O
Briefly: purified protein, by the assay type. As to conditions: 25.0 °C. Here is the method:
(§1) Kinetics and thermal denaturation data were analysed by the nonlinear regression function of SigmaPlot 14.0 (SPSS Inc.). Thermal denaturation data were fitted to Eq. (1). Substrate saturation curves at a fixed concentration of the co-substrate were fitted to Eq. (2). Initial rate data at varying concentrations of HisZ were fitted to Eq. (3). The concentration of ATPPRT at any concentration of AbHisGS and AbHisZ was calculated according to Eq. (4). Histidine dose-response data were fitted to Eq. (5). Single-turnover data with WT-AbATPPRT isotopologues were fitted to Eq. (6). Plots of kcat ratios against relative viscosity were fitted to Eq. (7). Temperature-rate profile for AbHisGS was fitted to Eq. (8). Single-turnover data with R70A-AbATPPRT isotopologues were fitted to Eq. (9). In Eqs. […] While kcats for [^13C,^15N]AbHisGS and [^2H,^13C,^15N]AbHisGS are marginally lower than for unlabelled AbHisGS and [^15N]AbHisGS, the overlapping nature of most data points in Fig. 1c disagrees with distinguishable heavy-enzyme kinetic isotope effects on kcat (^HEkcat). […] This was further probed by pre-steady-state kinetics under multiple-turnover conditions. The AbHisGS reaction had been shown not to have a burst of product formation, which is reproduced here for unlabelled AbHisGS, whose traces overlap with those for [^2H,^13C,^15N]AbHisGS (Supplementary Fig. 5). S5 Supplementary Figure 4 Substrate saturation curves for unlabelled AbATPPRT with AbHisGS purified from cultures grown in M9 and M9 with high cell density compared with previously published data (reproduced here) for unlabelled AbATPPRT with AbHisGS purified from cultures grown in LB. For the M9 and M9 high cell density curves, all data points are shown for two independent measurements, except for the previously published LB curves, where data are the mean of two independent measurements. Lines are best fit of the data to equation (2): solid line for M9 high cell density curves, long-dashed line for M9 curves, and short-dashed line for previously published LB curves. […]

Substrate in data set [3]: Nc1ncnc2c1ncn2[C@@H]1O[C@H](COP(=O)(O)OP(=O)(O)OP(=O)(O)O)[C@@H](O)[C@H]1O
Briefly: purified protein, by the assay type. As to conditions: 25.0 °C. Here is the method: as §1

Substrate in data set [4]: O=P(O)(O)OC[C@H]1O[C@H](OP(=O)(O)OP(=O)(O)O)[C@H](O)[C@@H]1O
Briefly: purified protein, by the assay type. As to conditions: 25.0 °C. Here is the method:
as §1
This is another data set of the same source.

Substrate in data set [5]: Nc1ncnc2c1ncn2[C@@H]1O[C@H](COP(=O)(O)OP(=O)(O)OP(=O)(O)O)[C@@H](O)[C@H]1O
Briefly: purified protein, by the assay type. As to conditions: 25.0 °C. Here is the method: as §1, with “5).” for “5). S5 Supplementary Figure 4 Substrate saturation curves for unlabelled AbATPPRT with AbHisGS purified from cultures grown in M9 and M9 with high cell density compared with previously published data (reproduced here) for unlabelled AbATPPRT with AbHisGS purified from cultures grown in LB. For the M9 and M9 high cell density curves, all data points are shown for two independent measurements, except for the previously published LB curves, where data are the mean of two independent measurements. Lines are best fit of the data to equation (2): solid line for M9 high cell density curves, long-dashed line for M9 curves, and short-dashed line for previously published LB curves.”
The source holds these as a separate data set.

Substrate in data set [6]: O=P(O)(O)OC[C@H]1O[C@H](OP(=O)(O)OP(=O)(O)O)[C@H](O)[C@@H]1O
Briefly: purified protein, by the assay type. As to conditions: 25.0 °C. Here is the method: as §1, with “5).” for “5). S5 Supplementary Figure 4 Substrate saturation curves for unlabelled AbATPPRT with AbHisGS purified from cultures grown in M9 and M9 with high cell density compared with previously published data (reproduced here) for unlabelled AbATPPRT with AbHisGS purified from cultures grown in LB. For the M9 and M9 high cell density curves, all data points are shown for two independent measurements, except for the previously published LB curves, where data are the mean of two independent measurements. Lines are best fit of the data to equation (2): solid line for M9 high cell density curves, long-dashed line for M9 curves, and short-dashed line for previously published LB curves.”
The source holds these as a separate data set.

B1: AbATPPRT (Acinetobacter baumannii ACICU) (protein)
chain: MNDVRNDDPNFNVMGNFDHGLTLALSKGRILKETLPLLATAGINLLEDPEKSRKLIFPTTHKQVRILILRASDVPTYVENGAADLGVAGKDVLMEHGAQHVYELLDLQIAKCKLMTAGKVGMERPKGRLKIATKYVNLTRQYYASLGEQVDVIKLYGSMELAPLVGLGDYIVDVVDTGNTLRANGLEPLEEICKVSSRLIVNKASFKRKQVLLNPIISQLEQAVQSR
notes: hetero-octameric holoenzyme (two HisGS dimers flanking a HisZ tetramer) reconstituted in vitro from separately purified recombinant AbHisGS (E. coli BL21(DE3)) and AbHisZ; unlabelled (natural isotope abundance)
Take B1: the Km is 350 ± 40 µM in “purified protein”; 96 µM in data set [1]; 300 µM and 280 µM in data set [2]; 130 ± 20 µM in data set [3]; 120 ± 10 µM in data set [4]; 170 ± 30 µM and 210 ± 30 µM in data set [5]. In data set [6], the Km is 80 µM and 85 µM. For the same protein, the kcat (in the data set “purified protein”; in data set [1]) was 16.6 ± 0.4 s⁻¹ each time.
